Eight molecules from patent CN115073593A (SHANGHAI JUNSHI BIOSCIENCES CO LTD; JUNMENG BIOSCIENCES CO …, dated 2022) can be followed below.

Where a chain is given by its changes, count along the chain named. Bounds are passed on as bounds.

The target of test [1] is T1, 重组SARS-CoV-2-RBD-His (SARS-CoV-2, UniProt P0DTC2 319-541).
T1 construct: domain: RBD
In words: BLI Octet Red 96e, antibody on Protein A probe, RBD-his in solution.

The target of test [2] is T1, 重组SARS-CoV-2-RBD-His. Nature of the test: BLI Octet Red 96e, antibody on Protein A probe.
The target of the next test is 生物素化的SARS-CoV-2 RBD (SARS-CoV-2, UniProt P0DTC2 319-541). Nature of the test: ELISA screen, Fab culture supernatant on streptavidin-captured biotinylated RBD.

B1: JS016-38 (antibody, V domains shown)
VH: EVQLVESGGGLVQPGGSLRLSCAASGFRVRRNYMSWVRQAPGKGLEWVSVIYPGGSTFYADSVKGRFTISRDNSMNTLFLQMNSLRAEDTAVYYCARVLPMYGDYLDYWGQGTLVTVSS
VL: DIVMTQSPSSLSASVGDRVTITCRASQNIERYLNWYQQKPGKAPKLLIYAASSLQSGVPSRFSGSGSGTDFTLTISSLQPEDFATYYCQQSASSTPEYTFGQGTKLEIKR
On to B1, for which, in the test with 重组SARS-CoV-2-RBD-His [1], the Kd (in general, the concentration at which binding is half-saturated) is below 0.0741 nM; the koff (commonly the rate constant with which the complex falls apart) was below 1e-05 s⁻¹; the kon (in general, the rate constant with which the complex forms) was 135000 M⁻¹ s⁻¹. Also, in the test with 重组SARS-CoV-2-RBD-His [2], the “fold improvement of the affinity constant over CB6” value is ~100 倍 and the “fold slower dissociation rate than CB6” value is ~100 倍.

B2: CB6-39 (轻链突变库克隆) (Fab, V domains shown)
VH: B1 VH with R28T, R30S, R31S, P53S
VL: DIVMTQSPSSLSASVGDRVTITCRASQPINQYLNWYQQKPGKAPKLLIYAASSLQSGVPSRFSGSGSGTDFTLTISSLQPEDFATYYCQQSKSSLPEYTFGQGTKLEIK
notes: also called CB6-39-VL; CB6-39-LC
Take B2: the binding result with 生物素化的SARS-CoV-2 RBD was “binds”.

B3: CB6-41 (轻链突变库克隆) (Fab, V domains shown)
VH: B1 VH with R28T, R30S, R31S, P53S
VL: B2 VL with P28A, N30A, Q31Y, L47E, K92P, S94A, L95F
notes: also called CB6-41-VL; CB6-41-LC
As for B3, the binding result with 生物素化的SARS-CoV-2 RBD is reported as “binds”.

B4: CB6-43 (轻链突变库克隆) (Fab, V domains shown)
VH: B1 VH with R28T, R30S, R31S, P53S
VL: B2 VL with P28N, N30H, Q31T, K92G, L95I
notes: also called CB6-43-VL; CB6-43-LC
For B4, the binding result with 生物素化的SARS-CoV-2 RBD was “binds”.

B5: CB6-40 (轻链突变库克隆) (Fab, V domains shown)
VH: B1 VH with R28T, R30S, R31S, P53S
VL: B2 VL with P28K, N30S, K92T, S94F, L95M
notes: also called CB6-40-VL; CB6-40-LC
Consider B5, for which the binding result in the test with 生物素化的SARS-CoV-2 RBD is “binds”.

B6: CB6-42 (轻链突变库克隆) (Fab, V domains shown)
VH: B1 VH with R28T, R30S, R31S, P53S
VL: B2 VL with P28S, N30I, K92A, S94A, L95R
notes: also called CB6-42-VL; CB6-42-LC
Regarding B6, the binding result with 生物素化的SARS-CoV-2 RBD was “binds”.

B7: CB6-37 (轻链突变库克隆) (Fab, V domains shown)
VH: B1 VH with R28T, R30S, R31S, P53S
VL: B2 VL with P28M, N30L, Q31P, K92S, S94A, L95T
notes: also called CB6-37-VL; CB6-37-LC
Consider B7, for which the binding result with 生物素化的SARS-CoV-2 RBD was “binds”.

B8: CB6-38 (轻链突变库克隆) (Fab, V domains shown)
VH: B1 VH with R28T, R30S, R31S, P53S
VL: B2 VL with P28N, N30E, Q31R, K92A, L95T
notes: also called CB6-38-VL; CB6-38-LC
Regarding B8, the binding result in the test with 生物素化的SARS-CoV-2 RBD was “binds”.
